Assay results from paper PMC9605988, “Juxtaposition of Bub1 and Cdc20 on phosphorylated Mad1 during catalytic mitotic checkpoint complex assembly” (Nature Communications, 2022).
Numbering of substitutions follows the chain as printed. Numbers in names are those of the source. Entries after “also recorded” stand apart in the source; their conditions may differ. Read-outs that look alike come from different tables or passages of the source.

Key:
O-Mad2 R133A = target: T1, O-Mad2 R133A (Homo sapiens, UniProt Q13257, R133A); test: NMR-monitored conversion of O-Mad2 to C-Mad2; assay type: biochemical; conditions: for O-Mad2 to C-Mad2 conversion: substoichiometric 2 µM Cdc20MIM (1:50) to 100 µM O-Mad2 R133A
T1 construct: made in house
Experimental: (§1) The following protein concentrations were used in NMR studies: ^1H,^15N HSQC of Mad1^CTD were collected with a 100 µM sample, whereas a 50 µM sample was used for titrations with Cdc20^N and Cdc20^α1. Cdc20^Box1 peptide was added at mM concentrations to minimise dilution during titration. […] Mad1^CTD was concentrated to 3 mM for titrations into Cdc20^N. ^1H,^15N HSQC of Mad2 were collected at 100 µM. All Mad2 NMR samples contain an R133A mutation to prevent Mad2 dimerisation. The C-Mad2 sample additionally contains an L13A mutation which favours the C-Mad2 state. Cdc20^MIM-bound C-Mad2 sample was prepared by adding a 1:2 excess of Cdc20^MIM peptide to an O-Mad2 sample with R133A mutation. To follow the O-to-C conversion of Mad2, the samples were prepared on ice and monitored using BEST ^1H,^15N-TROSY HSQC. The spectra were acquired with 16 scans and a recycle delay of 400 msec, giving an experimental time of 12 min per spectrum.
(§2) Mad1^CTD and Mad2 experiments were performed using an in-house 800 MHz Avance III spectrometer and Cdc20^N experiments were performed using an in-house 700 MHz Avance II + spectrometer, both equipped with triple resonance TCI CryoProbes. To retrieve signals that suffer from exchange broadening, we also utilised the Bruker 950 MHz Avance III spectrometer located at MRC Biomedical NMR Centre (Francis Crick Institute). Mad1^CTD and Mad2 spectra were collected at 298 K. Cdc20^N spectra were collected at 278 K to minimise exchange broadening for the largely disordered Cdc20^N.

[1] = target: T2, Mad1CTD (unphosphorylated) (Homo sapiens, UniProt Q9Y6D9); test: 1H,15N HSQC / CON NMR titration with unphosphorylated Mad1CTD; assay type: binding; conditions: peptide titration, 298 K
T2 construct: the C-terminal domain of Mad1 (residue 597–718); made in house
T2 sequence (Q9Y6D9 597-718): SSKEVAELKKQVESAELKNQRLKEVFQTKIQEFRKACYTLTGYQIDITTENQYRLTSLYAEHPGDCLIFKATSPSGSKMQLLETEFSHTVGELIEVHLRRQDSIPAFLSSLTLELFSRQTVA
Experimental: (§3) Uniformly-labelled proteins were expressed in M9 minimal media (6 g/L Na2HPO4, 3 g/L KH2PO4, 0.5 g/L NaCl) supplemented with 1.7 g/L yeast nitrogen base without NH4Cl and amino acids (Sigma Y1251). 1 g/L ^15NH4Cl and 4 g/L unlabelled glucose were supplemented for ^15N labelling. For ^13C/ ^15N double-labelled samples, unlabelled glucose was replaced with 3 g/L ^13C-glucose. Prior to all NMR experiments, proteins were dialysed into 20 mM HEPES, pH 7.0, 100 mM NaCl and 1 mM TCEP.
The following protein concentrations were used in NMR studies: ^1H,^15N HSQC of Mad1^CTD were collected with a 100 µM sample, whereas a 50 µM sample was used for titrations with Cdc20^N and Cdc20^α1. […] To follow the O-to-C conversion of Mad2, the samples were prepared on ice and monitored using BEST ^1H,^15N-TROSY HSQC. […]
(§4) For binding studies, the relative peak intensities were normalised to the C-terminal residue Ala718 of Mad1^CTD or Gly73 of Cdc20^N and expressed as PIbound/PIfree, with PIfree and PIbound being the peak heights of the free and bound forms, respectively. Weighted chemical shift perturbations were calculated using the equation[63]: Δδ = [(ΔδHNWHN)^2 + (ΔδNWN)^2)^2]^1/2 where ΔδHN and ΔδN are the chemical shift perturbations in ^1H and ^15N dimensions respectively. The weight factors were determined from the average variances of chemical shifts in the BMRB database, where WHN = 1 and WN = 0.16.

pMad1CTD = test: 1H,15N HSQC / CON NMR titration with pMad1CTD; assay type: binding, human; conditions: peptide titration, 298 K
Experimental: as §3, §1, §2, §4

Cdc20 = conditions: cited from earlier work
From the text: NMR spectroscopy was used to obtain structural insights into the Cdc20^N:Mad1^CTD interaction. Unlabelled Cdc20^N was titrated into either ^15N-labelled Mad1^CTD or pMad1^CTD (Fig. 2c, d and Supplementary Fig. 3a, b). […] Similar to Bub1^CD1, the interaction of Cdc20 α1 with Mad1^CTD would largely be driven by hydrophobic interactions (Fig. 4e). This model predicts that Gln3 and Glu7, and Asp9 of Cdc20 α1 interact with Arg617 and Lys619, respectively of the Mad1^CTD RLK motif (Fig. 4d). This is consi ...

[2] = target: the molecule itself; test: SEC + SEC-MALS; Mad1:C-Mad2 tetramer re-purified by SEC after adding excess Mad2; hexamer formed with an excess of Mad2LL; homogeneity confirmed by SEC-MALS
[3] = target: T3, preformed AF488-Bub1^CD1:Mad1^CTD complex (Mad1^CTD unphosphorylated) (UniProt Q9Y6D9 597-718, Aurora Fluor 488 (AF488) on the N-terminal Cys; phosphoserine (pSer459); phosphothreonine (pThr461)); test: fluorescence polarisation; fluorescence anisotropy; Cdc20^N twofold series (100 μM to 6 nM, mixed 1:1) titrated into preformed AF488-Bub1^CD1:Mad1^CTD (20 nM: 2.1 µM); 25 mM HEPES pH 7.75, 1 mM TCEP, 100 mM NaCl, 0.05% Tween-20; 25 °C; conditions: both partners purified
T3 construct: Mad1 C-terminal domain (Mad1^CTD), residues 597-718; as m1; added N-terminal Cys (carries AF488) and Trp; as m7; Bub1 conserved domain 1 (CD1) peptide; also called Mad1^CTD:AF488-Bub1^CD1 complex; source: mixed from purified Mad1^CTD and synthetic peptide (20 nM: 2.1 µM); copies: 2 + 1
T3 sequence 1: T2 sequence (Q9Y6D9 597-718)
T3 sequence 2: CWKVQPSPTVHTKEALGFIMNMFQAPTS

[4] = target: T4, preformed AF488-Bub1^CD1:pMad1^CTD complex (Mad1^CTD phosphorylated at Thr716) (UniProt Q9Y6D9 597-718, phosphothreonine at 716 (pThr716) | Aurora Fluor 488 (AF488) on the N-terminal Cys; phosphoserine (pSer459); phosphothreonine (pThr461)); test: as above; conditions: both partners purified
T4 construct: Mad1 C-terminal domain (Mad1^CTD), residues 597-718; as m2; added N-terminal Cys (carries AF488) and Trp; as m7; Bub1 conserved domain 1 (CD1) peptide; source: mixed from purified pMad1^CTD and synthetic peptide (20 nM: 2.1 µM); copies: 2 + 1
T4 sequence 1: T2 sequence (Q9Y6D9 597-718)
T4 sequence 2: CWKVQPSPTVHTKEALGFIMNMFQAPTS

pMad1CTD (Mad1CTD pT716) = test: SEC-MALS, Cdc20N with pMad1CTD; assay type: binding, human; conditions: 1:1.2 ratio Mad1CTD dimer to Cdc20N
Experimental: Size-exclusion chromatography coupled with multi-angle static light scattering (SEC-MALS), was performed using an Agilent 1200 series LC system with an online Dawn Helios ii system (Wyatt) equipped with a QELS + module (Wyatt) and an Optilab rEX differential refractive index detector (Wyatt). About 100 μl purified protein at ~3.0 mg/ml was auto-injected onto Superdex 75 or a Superdex 200 Increase 10/300 GL column (GE Healthcare) and run at 0.5 ml/min. The molecular masses were analysed with ASTRA 7.3.0.11 (Wyatt). Data were plotted using Prism 8.4.3 (GraphPad Software, Inc). Purified Cdc20^N and Cdc20^N mutants were incubated with Mad1^CTD wild-type or mutants at a 1:1.2 ratio of Mad1^CTD dimer to Cdc20^N.

T1 sequence (Q13257 whole entry R133A): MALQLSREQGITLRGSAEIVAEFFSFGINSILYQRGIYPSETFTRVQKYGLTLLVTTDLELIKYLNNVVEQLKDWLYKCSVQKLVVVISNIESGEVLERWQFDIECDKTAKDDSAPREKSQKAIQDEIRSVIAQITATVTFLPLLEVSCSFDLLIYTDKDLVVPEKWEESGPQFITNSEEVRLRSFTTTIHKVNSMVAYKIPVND

NLNGFDVEEAKILRLSGKPQNAPEGYQNRLKVLY [Cdc20^MIM]
O-Mad2 to C-Mad2 conversion (O-Mad2 R133A): cannot be achieved | O-Mad2 to C-Mad2 conversion (O-Mad2 R133A; listed as Cdc20MIM): The majority of Mad2 remains in an open state; also recorded: nearly all of Mad2 remains in an open state

O-Mad2: open Mad2 with R133A mutation to prevent dimerisation
time for O-Mad2 to C-Mad2 conversion (O-Mad2 R133A; absence of Cdc20MIM, peer review response): 24 h

PPARWQRKAKEAA [Cdc20 Box1, Box1 motif peptide of Cdc20]
binding by NMR chemical shift perturbation [1]: not Mad1^CTD | binding by NMR chemical shift perturbation (pMad1CTD): binds pMad1^CTD | binding by NMR chemical shift perturbation (pMad1CTD; listed as pMad1CTD:Cdc20Box1): appeared stronger than that between pMad1CTD:Cdc20α1

MAQFAFESDLHSLL [Cdc20 α1, N-terminal α1 helix peptide of Cdc20]
binding by NMR chemical shift perturbation (pMad1CTD): weak interaction; also recorded: weaker

B1: Q648A/R650A: mutation of the conserved QYRL motif within Mad1CTD, ref 33 (protein, UniProt Q9Y6D9 597-718, looked up, variant Q648A R650A)
chain: T2 sequence (Q9Y6D9 597-718) with Q52A, R54A
binding of Cdc20 to Mad1 mutant (Cdc20): impaired binding to Cdc20 | binding of Cdc20 to Mad1 mutant (Cdc20; listed as Q648A and R650A): impaired binding of Cdc20^N to Mad1

B2: Mad1^CTD RLK/AAA: Mad1CTD RLK/AAA (residues 617-619) mutant, ref 33 (protein, UniProt Q9Y6D9 597-718, looked up, variant R617A L618A K619A)
chain: T2 sequence (Q9Y6D9 597-718) with R21A, L22A, K23A
binding of Cdc20 to Mad1 mutant (Cdc20): abolished Cdc20 binding | binding of Cdc20 to Mad1 mutant (Cdc20; listed as RLK/AAA): impaired binding of Cdc20^N to Mad1

B3: Mad1^485–718 (Mad1^485), unphosphorylated (domain or fragment, UniProt Q9Y6D9 485-718, looked up)
chain: SSAEQSFLFSREEADTLRLKVEELEGERSRLEEEKRMLEAQLERRALQGDYDQSRTKVLHMSLNPTSVARQRLREDHSQLQAECERLRGLLRAMERGGTVPADLEAAAASLPSSKEVAELKKQVESAELKNQRLKEVFQTKIQEFRKACYTLTGYQIDITTENQYRLTSLYAEHPGDCLIFKATSPSGSKMQLLETEFSHTVGELIEVHLRRQDSIPAFLSSLTLELFSRQTVA
notes: Mad1 residues 485-718; Construct His6-DoubleStrep-TEV-Mad1^485–718; two copies in the tetramer and hexamer with Mad2; also called Mad1 residues 485–718
binding result [2]: binds

B4: Mad1^485–718 phosphorylated by Mps1 (pMad1^485) (domain or fragment, UniProt Q9Y6D9 485-718, looked up)
chain: B3 chain
modifications: phosphothreonine at 716 (predominant); lower abundant phosphorylation at Thr500, Ser538, Thr540, Thr550 and Ser551
notes: Mad1 residues 485-718; Predominantly one phosphate per monomer by intact mass; also called phosphorylated Mad1^485; phosphorylated Mad1^485–718
binding result [2]: binds

B5: Cdc20^N RRK/SSS mutant (Arg27, Arg30, Lys31 to Ser) (domain or fragment, human, UniProt Q12834 1-73, looked up)
chain: MAQFAFESDLHSLLQLDAPIPNAPPASWQSSAKEAAGPAPSPMRAANRSHSAGRTPGRTPGKSSSKVQTTPSK
notes: human Cdc20, residues 1-73; The purification (with tag cleavage) is told for Cdc20^N; likely the same for the mutant; source: site-directed mutant of the Cdc20^N construct, purified
Kd [3]: 18 µM | Kd [4]: 23 µM

B6: Cdc20^N RRK/SSS: Cdc20N with Arg27, Arg30, Lys31 mutated to Ser (protein)
chain: B5 chain
modifications: left off: His6, N-terminal, state not stated | MBP, N-terminal, state not stated
notes: Cdc20N with Arg27, Arg30, Lys31 mutated to Ser
binding by SEC-MALS (pMad1CTD (Mad1CTD pT716)): abolished its interaction with pMad1^CTD
